Experimental data taken from patent publication US20220332795A1 (ARO BIOTHERAPEUTICS, published 2022).

Columns and labels:
[1] = biological target: T1, human CD71 on cells (human, UniProt P02786 1-760); assay: Membrane Proteome Array, flow cytometry on QT6 cells
T1 construct: whole, on cells; also called the receptor

[2] = biological target: T2, CD71 apical domain (human, UniProt P02786 189-383, limits assumed); assay: solution ELISA screen (luminescence)
T2 construct: domain: apical domain

[3] = biological target: T3, human CD71 extracellular domain (human, UniProt P02786 89-760, biotinylated); assay: solution ELISA screen (luminescence)
T3 construct: extracellular domain; also called hCD71; huCD71 ECD

[4] = biological target: T2, CD71 apical domain; assay: solution ELISA screen, signal ratio to HSA control
[5] = biological target: T3, human CD71 extracellular domain; assay: solution ELISA screen, signal ratio to HSA control

T2 sequence (P02786 189-383 limits assumed): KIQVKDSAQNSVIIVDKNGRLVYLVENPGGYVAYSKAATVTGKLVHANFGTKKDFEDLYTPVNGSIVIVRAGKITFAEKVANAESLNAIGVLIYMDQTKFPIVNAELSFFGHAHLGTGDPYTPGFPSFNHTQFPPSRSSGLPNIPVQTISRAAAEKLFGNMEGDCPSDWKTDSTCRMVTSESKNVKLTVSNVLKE
T3 sequence (P02786 other isoform, or with tags, fused parts or gaps): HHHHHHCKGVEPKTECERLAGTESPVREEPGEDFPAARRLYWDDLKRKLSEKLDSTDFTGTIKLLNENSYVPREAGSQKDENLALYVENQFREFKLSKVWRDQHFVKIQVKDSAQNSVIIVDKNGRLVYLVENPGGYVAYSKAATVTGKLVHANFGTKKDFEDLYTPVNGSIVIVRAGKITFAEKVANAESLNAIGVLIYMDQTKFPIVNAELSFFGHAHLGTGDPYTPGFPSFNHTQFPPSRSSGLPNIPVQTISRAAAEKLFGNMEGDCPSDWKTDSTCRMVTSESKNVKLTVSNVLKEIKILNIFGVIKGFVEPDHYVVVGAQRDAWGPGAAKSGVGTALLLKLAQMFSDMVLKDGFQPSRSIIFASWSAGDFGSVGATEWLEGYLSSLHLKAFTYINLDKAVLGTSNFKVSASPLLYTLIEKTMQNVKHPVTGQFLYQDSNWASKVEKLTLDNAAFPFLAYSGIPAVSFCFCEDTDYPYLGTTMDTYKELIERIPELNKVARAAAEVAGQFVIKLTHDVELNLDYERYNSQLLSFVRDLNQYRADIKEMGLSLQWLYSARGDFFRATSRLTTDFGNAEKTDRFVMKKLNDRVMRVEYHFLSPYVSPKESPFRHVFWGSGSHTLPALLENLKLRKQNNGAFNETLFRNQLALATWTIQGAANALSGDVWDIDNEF
T1 sequence (P02786 whole entry): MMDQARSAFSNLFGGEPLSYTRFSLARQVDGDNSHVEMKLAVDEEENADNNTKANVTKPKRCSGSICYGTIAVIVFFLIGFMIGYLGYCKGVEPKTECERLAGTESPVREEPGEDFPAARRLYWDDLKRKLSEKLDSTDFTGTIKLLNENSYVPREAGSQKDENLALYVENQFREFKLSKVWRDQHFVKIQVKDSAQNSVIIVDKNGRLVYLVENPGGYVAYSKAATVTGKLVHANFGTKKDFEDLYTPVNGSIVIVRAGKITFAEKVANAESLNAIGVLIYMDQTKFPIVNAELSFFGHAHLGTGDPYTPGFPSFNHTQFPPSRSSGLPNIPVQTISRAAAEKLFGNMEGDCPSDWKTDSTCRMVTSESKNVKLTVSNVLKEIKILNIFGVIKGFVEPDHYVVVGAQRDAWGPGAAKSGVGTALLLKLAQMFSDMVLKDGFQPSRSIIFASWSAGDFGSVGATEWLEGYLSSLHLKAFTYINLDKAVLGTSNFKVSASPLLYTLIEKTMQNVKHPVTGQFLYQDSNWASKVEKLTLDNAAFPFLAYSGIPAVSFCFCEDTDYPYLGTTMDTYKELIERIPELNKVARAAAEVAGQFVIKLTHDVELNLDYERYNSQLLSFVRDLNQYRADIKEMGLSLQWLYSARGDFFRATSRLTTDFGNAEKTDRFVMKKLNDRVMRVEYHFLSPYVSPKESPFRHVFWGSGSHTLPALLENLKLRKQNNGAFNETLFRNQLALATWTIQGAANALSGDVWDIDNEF

Row | Binder | RLU [2] [RLU] | RLU [3] [RLU] | apical domain:HSA [4] [ratio] | hCD71:HSA [5] [ratio] | binding result [1]
1 | ABX1100 (designed binder, siRNA pair with linker (attachment residue not stated for this molecule), FN3 domain-siRNA conjugate; also called CD71 FN3 domain siRNA conjugate) MLPAPKNLVVSRVTEDSARLSWTAPDAAFDSFYIAYAEPRPDGEAILLQVPGSCRSYDLTGLKPGTEYSVLIHGVKGGLLSSPLTAIFTT | – | – | – | – | binds
2 | SEQ ID NO 208 (designed binder, not shown: small tags and cut ends) MLPAPKNLVVSRVTEDSARLSWTAPDAAFDSFFIGYLEPQPPGEAIVLAVPGSERSYDLTGLKPGTEYNVTIQGVKGGFPSYPLVAAFTT | 3.7e+06 | 3e+06 | 226 | 184 | –
3 | SEQ ID NO 222 (designed binder, not shown: small tags and cut ends) MLPAPKNLVVSRVTEDSARLSWTAPDAAFDSFFIGYLEPQPPGEAIVLDVPGSERSYDLTGLKPGTEYNVTIQGVKGGFPSHPLAAAFTT | 1.07e+06 | 1.47e+06 | 69 | 94.5 | –
4 | SEQ ID NO 210 (designed binder, not shown: small tags and cut ends) MLPAPKNLVVSRVTEDSARLSWTAPDAAFDSFFIGYLEPQPPGEAINLQVPGSERSYDLTGLKPGTEYNVTIQGVKGGFPSFPLSAVFTT | 4.12e+06 | 2.41e+06 | 85 | 49.7 | –
5 | SEQ ID NO 216 (designed binder, not shown: small tags and cut ends) MLPAPKNLVVSRVTEDSARLSWTAPDAAFDSFYIAYAEPRPDGEAISLSVPGSERSYDLTGLKPGTEYSVLIHGVKGGLLSSPPKFTT | 142000 | 4.15e+06 | 0.7 | 21.6 | –
6 | SEQ ID NO 221 (designed binder, not shown: small tags and cut ends) MLPAPKNLVVSRVTEDSARLSWTAPDAAFDSFFIGYLEPQPPGEAIFLDVPGSERSYDLTGLKPGTEYNVTIQGVKGGFPSPLTAFFTT | 31800 | 966000 | 0.5 | 16.4 | –

More lines, main results first:

Row | RLU [2] [RLU] | RLU [3] [RLU] | apical domain:HSA [4] [ratio] | hCD71:HSA [5] [ratio] | Binder | binding result [1]
7 | 1.67e+06 | 943000 | 70.1 | 39.5 | SEQ ID NO 235 (designed binder, not shown: small tags and cut ends) MLPAPKNLVVSRVTEDSARLSWTAPDAAFDSFFIGYLEPQPPGEAIQLTVPGSERSYDLTGLKPGTEYNVTIQGVKGGFPSLPLSADFTT | –
8 | 3.6e+06 | 1.93e+06 | 197 | 105 | SEQ ID NO 223 (designed binder, not shown: small tags and cut ends) MLPAPKNLVVSRVTEDSARLSWTAPDAAFDSFFIGYLEPQPPGEAIGLAVPGSERSYDLTGLKPGTEYNVTIQGVKGGFPSVPLQANFTT | –
9 | 6.83e+06 | 2.32e+06 | 331 | 112 | SEQ ID NO 231 (designed binder, not shown: small tags and cut ends) MLPAPKNLVVSRVTEDSARLSWTAPDAAFDSFFIGYLEPQPPGEAIHLYVPGSERSYDLTGLKPGTEYNVTIQGVKGGFPSDPLDAVFTT | –
10 | 112000 | 3.07e+06 | 1.1 | 31 | SEQ ID NO 238 (designed binder, not shown: small tags and cut ends) MLPAPKNLVVSRVTEDSARLSWTTPDAAFDSFYIAYAEPRPDGEAIRLQVPGSERSYDLTGLKPGTEYSVLIHGVKGGLLSSPLGFTT | –
